In US20200062863A1 (CSL BEHRING, published 2020):
Where a chain is given by its changes, count along the chain named.

Columns and labels:
Experiment in all cases: Western blot of culture supernatant (non-reducing SDS-PAGE) probed with 3F7 mAb, anti-human IgG-FITC
W420R = target: T1, W420R
T1 construct: also called Mu-FXII W420R mutant with C-terminal 8xHis-tag; mutant d)
T1 single chain: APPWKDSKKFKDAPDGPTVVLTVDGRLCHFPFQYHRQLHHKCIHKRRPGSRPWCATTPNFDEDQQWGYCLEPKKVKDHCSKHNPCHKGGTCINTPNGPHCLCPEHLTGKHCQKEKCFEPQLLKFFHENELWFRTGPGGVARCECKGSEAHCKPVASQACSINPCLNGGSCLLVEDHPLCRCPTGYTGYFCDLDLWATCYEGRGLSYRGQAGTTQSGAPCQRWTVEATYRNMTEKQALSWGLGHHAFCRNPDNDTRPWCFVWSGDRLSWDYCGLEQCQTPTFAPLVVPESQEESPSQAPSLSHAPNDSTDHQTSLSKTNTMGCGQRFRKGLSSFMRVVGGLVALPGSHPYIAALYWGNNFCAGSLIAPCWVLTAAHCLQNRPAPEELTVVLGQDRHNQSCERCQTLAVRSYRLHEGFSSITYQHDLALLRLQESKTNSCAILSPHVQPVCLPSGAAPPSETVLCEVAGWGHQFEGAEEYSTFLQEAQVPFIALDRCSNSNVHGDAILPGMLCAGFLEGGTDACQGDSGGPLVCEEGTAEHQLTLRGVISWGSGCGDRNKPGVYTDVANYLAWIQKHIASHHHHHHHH
Protocol: (§1) Proteins were then transferred electrophoretically onto nitrocellulose filters and blocked for 1 hour in 5% Milk powder in Tris-buffered saline with 0.05% Tween-20 (TTBS). Filters were then incubated for 1 hour with either 3F7 mAb or an anti-His mAb 3H3 (both at […] in TTBS with 5% Milk powder), washed thoroughly with TTBS, then incubated for a further hour with anti-human IgG-FITC or anti-mouse IgG-FITC, respectively (Millipore, USA; both at 0.25 mg/ml in TTBS with 5% Milk powder). Following further washing of membranes in TTBS, Ab-FITC bound proteins were visualized using a Typhoon variable mode analyzer (GE Healthcare, USA).

R427H = target: T2, R427H
T2 construct: also called Mu-FXII R427H mutant with C-terminal 8xHis-tag; mutant e)
T2 single chain: T1 single chain with R401W, R408H
Protocol: as §1

G472S = target: T3, G472S
T3 construct: also called Mu-FXII G472S mutant with C-terminal 8xHis-tag; mutant k)
T3 single chain: T1 single chain with R401W, G453S
Protocol: as §1

Q450R = target: T4, Q450R
T4 construct: also called Mu-FXII Q450R mutant with C-terminal 8xHis-tag; mutant g)
T4 single chain: T1 single chain with R401W, Q431R
Protocol: as §1

Measured: binding result

B1: monoclonal antibody 3F7 (fully human IgG4/lambda) (antibody, V domains shown)
VH: EVQLLESGGGLVQPGGSLRLSCAASGFTFSKYIMQWVRQAPGKGLEWVSGIRPSGGTTVYADSVKGRFTISRDNSKNTLYLQMNSLRAEDTAVYYCARALPRSGYLISPHYYYYALDVWGQGTTVTVSS
VL: QSELTQPPSASGTPGQRVTISCSGSSSNIGRNYVYWYQQVPGTAPKLLIYSNNQRPSGVPDRFSGSKSGTSASLVISGLRSEDEADYYCAAWDASLRGVFGGGTKLTVLG
notes: also called 3F7 mAb; MAb 3F7
binds: all assays above
